In patent US20260070940A1 (Hoffmann-La Roche, published 2026):
Numbering of substitutions follows the chain as printed. “And” between values parts separate entries of the source, which are not always exact repeats. Identical values can stand only once.

Key:
[1] = molecular target: T1, full-length human CD28 with N-terminal SNAP tag on transfected Hek293 cells (human, UniProt P10747 19-220, SNAP tag labelled with terbium); experiment: FRET competition, unlabelled against d2-TGN1412 on CD28-SNAP cells; 95% CI in brackets
T1 construct: whole, on cells; also called hu CD28-SNAP

[2] = molecular target: T1, full-length human CD28 with N-terminal …; experiment: FRET competition on cells with terbium-labelled hu CD28-SNAP; competitor d2-labelled TGN1412 (0.15 nM), unlabelled TGN1412 IgG titrated
[3] = molecular target: T2, murine LAG3-Fc antigen (R&D Systems, 3328-L3-050) (murine, UniProt Q61790 24-442); experiment: ELISA, murine LAG3-Fc
T2 construct: Bought
T2 sequence (looked up): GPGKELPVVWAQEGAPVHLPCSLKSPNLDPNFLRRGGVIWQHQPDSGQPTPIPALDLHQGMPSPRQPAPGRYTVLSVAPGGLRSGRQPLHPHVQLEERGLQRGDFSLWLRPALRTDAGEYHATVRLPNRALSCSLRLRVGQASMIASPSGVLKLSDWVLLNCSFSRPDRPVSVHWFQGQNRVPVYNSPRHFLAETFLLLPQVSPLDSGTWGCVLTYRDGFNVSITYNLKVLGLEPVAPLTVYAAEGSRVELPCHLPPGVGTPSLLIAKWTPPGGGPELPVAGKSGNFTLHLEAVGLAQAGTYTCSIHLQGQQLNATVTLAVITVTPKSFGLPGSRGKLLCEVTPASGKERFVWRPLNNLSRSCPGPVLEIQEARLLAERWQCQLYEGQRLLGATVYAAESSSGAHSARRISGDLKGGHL

[4] = molecular target: T3, human LAG3 on recombinant CHO cells (human, UniProt P18627 23-525); experiment: cell ELISA, CHO-LAG3
T3 construct: whole, on cells; also called Lag3 cells
T3 sequence (looked up): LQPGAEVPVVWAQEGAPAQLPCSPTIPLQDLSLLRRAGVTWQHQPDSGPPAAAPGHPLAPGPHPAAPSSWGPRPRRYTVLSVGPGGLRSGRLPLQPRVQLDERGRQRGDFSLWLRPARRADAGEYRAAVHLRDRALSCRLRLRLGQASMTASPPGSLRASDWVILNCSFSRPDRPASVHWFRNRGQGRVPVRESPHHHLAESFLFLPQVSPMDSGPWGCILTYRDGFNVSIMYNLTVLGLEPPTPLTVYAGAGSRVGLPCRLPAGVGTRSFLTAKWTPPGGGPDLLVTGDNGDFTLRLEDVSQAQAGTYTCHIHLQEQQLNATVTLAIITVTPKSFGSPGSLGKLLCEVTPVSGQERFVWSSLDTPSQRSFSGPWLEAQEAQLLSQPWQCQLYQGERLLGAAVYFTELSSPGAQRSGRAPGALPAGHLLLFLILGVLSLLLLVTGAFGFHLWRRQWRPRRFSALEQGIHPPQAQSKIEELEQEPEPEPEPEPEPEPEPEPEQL

[5] = molecular target: T4, recombinant human LAG3 Fc Chimera Protein (R&D Systems, 2319-L3) (human, UniProt P18627 23-450); experiment: ELISA, coated LAG3 Fc
T4 construct: Bought
T4 sequence (looked up): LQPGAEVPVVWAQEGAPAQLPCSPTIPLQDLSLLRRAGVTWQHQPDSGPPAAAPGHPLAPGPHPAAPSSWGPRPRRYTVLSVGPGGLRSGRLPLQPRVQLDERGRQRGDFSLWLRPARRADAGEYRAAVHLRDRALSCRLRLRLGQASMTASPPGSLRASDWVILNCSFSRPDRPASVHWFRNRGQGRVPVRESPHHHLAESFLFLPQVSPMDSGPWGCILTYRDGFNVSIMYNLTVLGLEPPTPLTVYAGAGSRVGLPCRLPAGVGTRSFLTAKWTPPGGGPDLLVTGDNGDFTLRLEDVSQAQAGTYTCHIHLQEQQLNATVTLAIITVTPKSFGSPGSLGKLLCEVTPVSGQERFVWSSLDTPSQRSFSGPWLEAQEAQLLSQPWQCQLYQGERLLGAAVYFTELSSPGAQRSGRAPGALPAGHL

[6] = molecular target: T5, soluble human Lag3-IgG1-Fc with biotinylated C-terminal Avi-tag (human, biotin on the Avi-tag); experiment: A375 MHCII competition ELISA
T5 construct: Lag3 ECD, IEGRMD linker, IgG1 Fc, Avi-tag; also called LAG3-Fc-avi; biotinylated LAG3-Fc

[7] = molecular target: T4, recombinant human LAG3 Fc Chimera …; experiment: SPR, captured aVH-Fc, LAG3 Fc analyte
[8] = molecular target: T5, soluble human Lag3-IgG1-Fc with …; experiment: A375 MHCII competition ELISA, 3 ug/ml
[9] = molecular target: T4, recombinant human LAG3 Fc Chimera …; experiment: SPR, captured aVH-Fc, LAG3 Fc analyte; poor fit
[10] = molecular target: T4, recombinant human LAG3 Fc Chimera …; experiment: SPR, captured antibody, LAG3 Fc analyte
[11] = molecular target: T6, MCSP antigen, amino acids 1553 to 2184 of matured MCSP with C-terminal avi-tag and His-tag, biotinylated (Homo sapiens (Human), UniProt Q6UVK1 1582-2213, limits assumed, biotin on the avi-tag); experiment: ELISA, supernatant on biotinylated antigen
T6 construct: also called recombinant MCSP
T6 sequence: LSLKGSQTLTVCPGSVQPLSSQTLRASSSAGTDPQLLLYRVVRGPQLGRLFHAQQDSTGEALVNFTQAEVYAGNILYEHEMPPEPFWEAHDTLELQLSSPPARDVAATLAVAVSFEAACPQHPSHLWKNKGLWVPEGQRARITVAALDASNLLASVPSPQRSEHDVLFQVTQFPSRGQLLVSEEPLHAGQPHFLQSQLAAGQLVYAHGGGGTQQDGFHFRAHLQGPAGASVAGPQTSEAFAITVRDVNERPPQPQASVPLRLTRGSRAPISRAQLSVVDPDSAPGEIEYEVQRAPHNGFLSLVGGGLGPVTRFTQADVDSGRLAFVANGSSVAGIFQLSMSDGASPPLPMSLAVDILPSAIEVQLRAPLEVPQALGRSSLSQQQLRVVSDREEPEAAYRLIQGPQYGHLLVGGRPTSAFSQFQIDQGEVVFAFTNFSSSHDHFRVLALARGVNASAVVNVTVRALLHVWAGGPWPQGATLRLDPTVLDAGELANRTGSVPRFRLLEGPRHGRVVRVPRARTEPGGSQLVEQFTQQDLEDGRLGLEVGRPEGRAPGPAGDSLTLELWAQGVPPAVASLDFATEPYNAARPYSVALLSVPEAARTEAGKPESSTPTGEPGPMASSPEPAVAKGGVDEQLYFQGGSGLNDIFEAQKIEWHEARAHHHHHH

B1: TGN1412 IgG (antibody, V domains shown)
VH: QVQLVQSGAEVKKPGASVKVSCKASGYTFTSYYIHWVRQAPGQGLEWIGCIYPGNVNTNYNEKFKDRATLTVDTSISTAYMELSRLRSDDTAVYFCTRSHYGLDWNFDVWGQGTTVTVSS
VL: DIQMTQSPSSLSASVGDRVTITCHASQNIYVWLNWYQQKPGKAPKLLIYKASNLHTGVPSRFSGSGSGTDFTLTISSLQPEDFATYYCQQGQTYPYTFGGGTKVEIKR
In the case of B1, the Ki [1] is reported as 0.28 nM and the “IC50 (read off the curve)” value [2] is reported as roughly 0.6 nM.

B2: P11A2 aVH-Fc, bivalent (PG-LALA) (Fc fusion)
heavy: EVQLVESGGGLVQPGGSLRLSCAASSFNIKDTYIGWVRRAPGKGTELVAEIACHEGTTRYADSVKGRFTISCDTSKNTAYLQMNSLRAEDTAVYYCANTEYDDIFDYWGQGTTVTVSSGGGGSGGGGSDKTHTCPPCPAPEAAGGPSVFLFPPKPKDTLMISRTPEVTCVVVDVSHEDPEVKFNWYVDGVEVHNAKTKPREEQYNSTYRVVSVLTVLHQDWLNGKEYKCKVSNKALGAPIEKTISKAKGQPREPQVYTLPPSRDELTKNQVSLTCLVKGFYPSDIAVEWESNGQPENNYKTTPPVLDSDGSFFLYSKLTVDKSRWQQGNVFSCSVMHEALHNHYTQKSLSLSPGK
With B2 the binding result [3] was “no binding”, the EC50 [4] was 0.0169 µg/mL and 0.2 nM and the OD max [4] was 1.2. The OD max [5] was 1.3, the IC50 [6] was 0.0903 µg/mL and 1.2 nM and the t½ [7] was 2.4 min. For the same binder, the “% Inhibition” value [8] was 92.4% and the koff [9] was 0.0048 s⁻¹.

B3: 9B4 aVH-Fc, bivalent (PG-LALA) (Fc fusion)
chain: EVQLVESGGGLVQPGGSLRLSCAASGFNIKDTCIGWVRRAPGKGTELVAEICQDIGYTRYADSVKGRFTISADTSKNTAYLQMNSLRAEDTAVYYCAAVEVAEYFEYWGQGTTVTVSS
notes: not shown: linker and human IgG1 Fc (PG-LALA)
For B3, the binding result [3] was “no binding”, the EC50 [4] was 0.0288 µg/mL and 0.4 nM and the OD max [4] was 1.3. For the same binder, the EC50 [5] was 0.0194 µg/mL and 0.3 nM, the OD max [5] was 1.2 and the IC50 [6] was 0.0762 µg/mL and 1 nM. The koff [7] was 0.00019 s⁻¹, the t½ [7] was 61.1 min and the “% Inhibition” value [8] was 95.5%.

B4: P10D1 aVH-Fc, bivalent (PG-LALA) (Fc fusion)
chain: B3 chain with N28S, G35A, Q53E, V99K, V101A, A102G, E103V, Y104G, E106D
notes: as for B3
In the case of B4, the binding result [3] is reported as “no binding”, the EC50 [4] is reported as 0.029 µg/mL and 0.4 nM and the OD max [4] is reported as 1.2. The EC50 [5] was 0.113 µg/mL and 1.5 nM, the OD max [5] was 0.9 and the IC50 [6] was 0.0933 µg/mL and 1.2 nM. The koff [7] was 0.00011 s⁻¹, the t½ [7] was 102 min and the “% Inhibition” value [8] was 93.4%.

B5: MDX 25F7 (antibody, V domains shown)
VH: QVQLQQWGAGLLKPSETLSLTCAVYGGSFSDYYWNWIRQPPGKGLEWIGEINHNGNTNSNPSLKSRVTLSLDTSKNQFSLKLRSVTAADTAVYYCAFGYSDYEYNWFDPWGQGTLVTVSS
VL: EIVLTQSPATLSLSPGERATLSCRASQSISSYLAWYQQKPGQAPRLLIYDASNRATGIPARFSGSGSGTDFTLTISSLEPEDFAVYYCQQRSNWPLTFGQGTNLEIK
B5 was tested, and the OD max [4] was 2.06, the EC50 [5] was 0.0031 µg/mL and 0.02 nM and the OD max [5] was 3.39. The IC50 [6] was 0.127 µg/mL and 0.8 nM, the “% Inhibition” value [8] was 90.4% and the koff [10] was 0.00039 s⁻¹. For the same binder, the t½ [10] was 30 min.

B6: SEQ ID NO 59 (VHH)
VHH: EVQLVESGGGLVQPGGSLRLSCAASSFNIKDTYIGWVRRAPGKGTELVADIYCSEGSTRYADSVKGRFTISCDTSKNTAYLQMNSLRAEDTAVYYCAAVSDYVVFYYWGQGTTVTVSS
notes: also called MCSP-specific aVH
B6: binds [11].

B7: SEQ ID NO 61 (VHH)
VHH: EVQLVESGGGLVQPGGSLRLSCAASSFNIKDTYIGWVRRAPGKGTELVAGIYCEAGITRYADSVKGRFTISCDTSKNTAYLQMNSLRAEDTAVYYCAGKGIGNYFDYWGQGTTVTVSS
notes: also called MCSP-specific aVH
B7: binds [11].
